Reference: patent US20200108125A1

Biological target: TrkB (mouse) (UniProt P15209)
Test: cell-based or functional assay

Chain of UniProt P15209 (P15209 32-821): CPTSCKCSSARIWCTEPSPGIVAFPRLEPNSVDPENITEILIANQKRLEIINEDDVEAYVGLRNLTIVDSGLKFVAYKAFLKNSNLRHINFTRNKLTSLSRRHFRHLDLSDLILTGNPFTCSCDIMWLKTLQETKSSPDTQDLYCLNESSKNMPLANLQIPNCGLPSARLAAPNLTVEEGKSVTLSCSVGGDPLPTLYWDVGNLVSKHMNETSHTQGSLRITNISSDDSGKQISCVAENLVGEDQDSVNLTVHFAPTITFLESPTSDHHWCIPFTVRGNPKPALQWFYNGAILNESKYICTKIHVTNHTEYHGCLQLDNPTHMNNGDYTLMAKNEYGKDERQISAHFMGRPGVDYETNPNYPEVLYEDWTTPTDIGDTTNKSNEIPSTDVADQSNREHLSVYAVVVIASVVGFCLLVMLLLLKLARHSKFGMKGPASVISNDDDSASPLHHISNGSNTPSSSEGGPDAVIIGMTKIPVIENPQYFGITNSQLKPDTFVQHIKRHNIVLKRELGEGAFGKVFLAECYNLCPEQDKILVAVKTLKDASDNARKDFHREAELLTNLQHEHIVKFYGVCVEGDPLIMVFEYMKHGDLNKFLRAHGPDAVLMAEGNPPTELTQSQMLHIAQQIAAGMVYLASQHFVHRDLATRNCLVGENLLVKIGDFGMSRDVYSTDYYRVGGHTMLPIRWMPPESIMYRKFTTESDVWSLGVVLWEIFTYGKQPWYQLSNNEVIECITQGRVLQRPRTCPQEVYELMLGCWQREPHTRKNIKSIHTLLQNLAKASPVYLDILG

- Fndc5 gene expression (qPCR) in primary cortical neurons stimulated overnight with BDNF (0.1-100 ng/ml); lowest concentration with a significant reduction: 1 ng/mL
Substance: Recombinant human BDNF (from UniProt P23560 129-247) (ligand)
